The record followed here is paper PMC4457421.

The test addresses Bacteriorhodopsin from Halobium salinarum expressed in E. coli (Halobium salinarum) (UniProt P02945). In words: crystal structure; in meso nanovolume crystallisation in monooleoyl-based lipid mesophase, protein 20 mg/ml, 1.5M Na/K-Pi pH 5.6, 22°C; space group C2, three monomers in the asymmetric unit; 1.9 Å.

As usually defined, the stoichiometry N is a count of units in the complex or per binding partner. As to “Bacteriorhodopsin from Halobium salinarum expressed in E. coli (from UniProt P02945 14-262) (natural protein)”, the stoichiometry N worked out at 3.
